Measurements published in patent US20220112273A1 (University of Pennsylvania, published 2022).

How the values were obtained:
[1] = molecular target: Env of pseudotyped HIV-1 Bal26 virus (clade B, tier 1) (HIV-1 (clade B, Bal26)); experiment: cell-based or functional assay
[2] = molecular target: Env of pseudotyped HIV-1 Q23Env17 virus (clade A, tier 1) (HIV-1 (clade A, Q23Env17)); experiment: cell-based or functional assay
[3] = molecular target: Env of pseudotyped HIV-1 SF162S virus (clade B, tier 1) (HIV-1 (clade B, SF162S)); experiment: cell-based or functional assay
[4] = molecular target: recombinant HIV-1 Env (subtype B; MN) protein (HIV-1 (subtype B, MN), UniProt P05877 32-513); experiment: binding ELISA, serial dilutions of day 14 mouse sera (FIG. 64A)

Binder	plateau percent neutralization (TZM-Bl luciferase assay, sera at 1:50) [1] [%]	plateau percent neutralization (TZM-Bl luciferase assay, sera at 1:50) [2] [%]	plateau percent neutralization (TZM-Bl luciferase assay, sera at 1:50) [3] [%]	binding result [4]
HIV-1 Env-Fab (Fab generated from the VRC01 antibody, expressed from pHIV-1Env-Fab) (Fab, V domains shown) VH: QVQLVQSGGQMKKPGESMRISCRASGYEFIDCTLNWIRLAPGKRPEWMGWLKPRGGAVNYARPLQGRVTMTRDVYSDTAFLELRSLTVDDTAVYFCTRGKNCDYNWDFEHWGRGTPVIVSS VL: QIVLTQSPGTLSLSPGETAIISCRTSQYGSLAWYQQRPGQAPRLVIYSGSTRAAGIPDRFSGSRWGPDYNLTISNLESGDFGVYYCQQYEFFGQGTKVQVDI	~62	~60	~70	–
CHIKV-IgG (full-length anti-CHIKV Env human IgG from a single plasmid) (antibody, V domains shown) VH: QVQLQQPGAALVKPGASAMMSCKASGYTFTSYWITWVKQRPGQGLEWIGDIYPGTGRTIYKEKFKTKATLTVDTSSSTAFMQLNSLTSEDSAVYYCARGYGSPYYALDYWGQGTSVTVSS VL: DIVLTQSPASLAVSQGQRATISCKASQSVDYDGDSYVNWYQQKPGQSPKLLIYDASNLESGIPARFSGSGSGTDFTLNIHPVEEEDVATYYCQESNEDPRTFGGGTKLEIKR	–	–	–	no binding
CHIKV-Env-Fab (Fab, V domains shown) VH: QVQLVQSGSELKKPGASVKVSCKASGYTLTRYAMTWVRQAPGQGLEWMGWINTYTGNPTYVQGFTGRFVFSLDTSVSTAFLHITSLKAEDTAVYFCAREGGARGFDYWGQGTLVTVSS VL: QSVLTQPPSVSGAPGQRVTISCTGSSSNIGASHDVHWYQQLPGTAPTLLIYVNSNRPSGVPDRFSGSKSGTSASLAITGLQAEDEADYYCQSYDSNLSGSAVFGGGTKLTVLG	–	–	–	no binding
